Format: physicochemical
Settings: 0.5 mg/mL protein, 25 mM HEPES pH 7.5, 1 mM TCEP, scan 15 to 65° C. at 60° C./hour

WT Mpro: wild-type SARS-CoV-2 main protease (nsp5), recombinant from E. coli
temperature associated with the DSC thermogram peak: 57.2 °C
